The values that follow come from EP4755916A1 (Jiangsu Hengrui Pharmaceuticals Co., Ltd., dated 2026).

Where two headings read alike, the source gives them in different places.

Test [1] has as its target T1, human BTN3A1 expressed on HEK293 cells (human, UniProt O00481 30-513).
T1 construct: whole, on cells; also called BTN3A1-expressing HEK293 cells; human BTN3A1-overexpressing cells
Briefly: flow cytometry, HEK293 cells overexpressing human BTN3A1.

The target of test [2] is T2, human BTN3A2 overexpressed on HEK293 cells (human, UniProt P78410 30-334).
T2 construct: whole, on cells; HEK293 cells with endogenous BTN3A knocked out; also called human BTN3A2-overexpressing cells
T2 sequence (P78410 30-334): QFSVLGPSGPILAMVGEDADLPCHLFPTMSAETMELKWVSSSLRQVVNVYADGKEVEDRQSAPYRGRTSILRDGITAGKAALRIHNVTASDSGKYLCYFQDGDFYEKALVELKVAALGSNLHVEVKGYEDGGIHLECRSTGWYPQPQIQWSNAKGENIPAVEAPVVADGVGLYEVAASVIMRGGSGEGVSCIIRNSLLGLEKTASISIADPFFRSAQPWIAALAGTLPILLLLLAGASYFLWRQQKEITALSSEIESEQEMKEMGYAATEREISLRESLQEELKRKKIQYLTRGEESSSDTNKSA
Briefly: flow cytometry, HEK293 cells (endogenous BTN3A knocked out) overexpressing human BTN3A2.

Test [3] deals with T1, human BTN3A1 expressed on HEK293 cells. Briefly: flow cytometry, HEK293 cells (endogenous BTN3A knocked out) overexpressing human BTN3A1.
For test [4], the target named is T3, human BTN3A3 overexpressed on HEK293 cells (human, UniProt O00478 30-584).
T3 construct: whole, on cells; HEK293 cells with endogenous BTN3A knocked out; also called human BTN3A3-overexpressing cells
T3 sequence (O00478 30-584): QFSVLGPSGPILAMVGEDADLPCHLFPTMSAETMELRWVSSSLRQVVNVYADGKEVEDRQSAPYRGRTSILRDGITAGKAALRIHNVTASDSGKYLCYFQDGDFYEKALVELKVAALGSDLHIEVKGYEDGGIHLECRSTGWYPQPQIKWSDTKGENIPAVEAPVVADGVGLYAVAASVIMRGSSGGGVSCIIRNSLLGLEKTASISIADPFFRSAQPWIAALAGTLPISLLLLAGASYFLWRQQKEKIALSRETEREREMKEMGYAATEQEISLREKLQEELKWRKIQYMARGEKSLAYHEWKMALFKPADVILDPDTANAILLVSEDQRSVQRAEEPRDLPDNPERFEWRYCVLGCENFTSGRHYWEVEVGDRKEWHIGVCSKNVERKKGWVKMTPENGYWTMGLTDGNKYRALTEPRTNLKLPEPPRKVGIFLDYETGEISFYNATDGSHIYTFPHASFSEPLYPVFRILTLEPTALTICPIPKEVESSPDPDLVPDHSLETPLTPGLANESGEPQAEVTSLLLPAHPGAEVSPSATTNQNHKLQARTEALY
Briefly: flow cytometry, HEK293 cells (endogenous BTN3A knocked out) overexpressing human BTN3A3.

Test [5] deals with T4, human BTN3A1 recombinant protein with his tag (h-BTN3A1-his) (human, UniProt O00481 30-254).
T4 construct: range 30-254; Bought from Kactus; also called human BTN3A1 antigen protein (Kactus Biosystems, BTN-HM1A1); not shown: his tag
T4 sequence (O00481 30-254 limits assumed): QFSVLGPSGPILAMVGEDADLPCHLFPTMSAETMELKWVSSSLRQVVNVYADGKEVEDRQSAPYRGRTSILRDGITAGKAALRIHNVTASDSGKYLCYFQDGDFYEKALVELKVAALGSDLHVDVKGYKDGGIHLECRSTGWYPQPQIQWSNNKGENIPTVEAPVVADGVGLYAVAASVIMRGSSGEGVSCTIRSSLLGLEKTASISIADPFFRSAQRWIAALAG
Briefly: SPR Biacore 8K, antibody captured on Protein A chip, BTN3A1 as analyte, 1:1 Langmuir fit.

Test [6] deals with T4, human BTN3A1 recombinant protein with …. Described as above. The source holds these as a separate data set.
The target is the same in test [7]. Briefly: ELISA, plate coated with h-BTN3A1-his, antibody titrated.
Test [8] deals with T1, human BTN3A1 expressed on HEK293 cells. Briefly: flow cytometry, HEK293 cells (endogenous BTN3A knocked out) overexpressing human BTN3A1. The source holds these as a separate data set.

T1 sequence (O00481 30-513): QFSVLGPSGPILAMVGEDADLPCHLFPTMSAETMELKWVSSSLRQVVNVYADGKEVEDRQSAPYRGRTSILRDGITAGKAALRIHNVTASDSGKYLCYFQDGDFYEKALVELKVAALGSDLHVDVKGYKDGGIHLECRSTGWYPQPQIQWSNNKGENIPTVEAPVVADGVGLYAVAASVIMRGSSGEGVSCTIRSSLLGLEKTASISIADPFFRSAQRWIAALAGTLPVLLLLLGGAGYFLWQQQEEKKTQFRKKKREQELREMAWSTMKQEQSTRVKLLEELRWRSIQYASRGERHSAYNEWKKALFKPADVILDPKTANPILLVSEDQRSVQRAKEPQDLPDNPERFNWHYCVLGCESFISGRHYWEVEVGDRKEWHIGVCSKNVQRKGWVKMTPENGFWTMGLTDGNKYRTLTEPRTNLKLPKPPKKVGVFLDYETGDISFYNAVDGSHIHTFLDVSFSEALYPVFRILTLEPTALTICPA

B1: 17G4-H5L3 (antibody, human IgG1, kappa, V domains shown)
VH: EQQLVESGGGLVQPGGSLRLSCAASGFSLNDYYITWVRQAPGKGLEWIGVIYGSSNTVYASWAKGRFTISKTSTMVYLQMNSLRAEDTAVYFCARGYLASSADIWGQGTLVTVSS
VL: DQQLTQSPSSLSASVGDRVTITCQSSQSVYNNNRLAWYQQKPGKPPKLLIYDASTLASGVPSRFSGSGSGTDFTLTISSLQPEDVATYYCQTYYSGYIWAFGGGTKVEIKR
notes: Humanized; human IgG1 constant region with L234F/L235E/P331S and human Ckappa; also called 17G4's humanized antibody
Turning to B1, in test [1], the EC50 stood at 19.8 nM and the “Max FACS mean fluorescence intensity (MFI)” value was 89700 MFI.

B2: 20A3-H2L2 (antibody, human IgG1, kappa, V domains shown)
VH: EVQLVESGGGLVQPGGSLRLSCAASGFTINNYYMNWVRQAPGKGLEWVSIIYGSDNTYYASWAKGRFTISKDNSKNTVYLQMNSLRAEDTAVYYCVRNLDYSSAYFHIWGQGTLVTVSS
VL: DIQLTQSPSSLSASVGDRVTITCQASQSVYNNNRLAWYQQKPGKPPKLLIYEASKLASGVPSRFSGSGSGTDFTLTISSLQPEDVATYYCQGYYSGFIYPFGGGTKVEIKR
notes: Humanized; human IgG1 constant region with L234F/L235E/P331S and human Ckappa; also called 20A3's humanized antibody
With B2, the EC50 stood at 6.76 nM in test [2], 2.98 nM in test [3], 10.2 nM in test [1] and 5.12 nM in test [4]. Besides, the “Max FACS mean fluorescence intensity (MFI)” value in test [1] came to 91200 MFI. In test [5], the Kd was found to be 0.174 nM. For the same molecule, in test [5], the koff came out at 0.000172 s⁻¹. Also, in test [5], the kon stood at 985000 M⁻¹ s⁻¹.

B3: 20A3 (a human-rabbit chimeric antibody, parent) (antibody, human IgG1, kappa, V domains shown)
VH: QSVEESGGRLVTPGTPLTLTCTASGFTINNYYMNWVRQAPGKGLEWIGIIYGSDNTYYASWAKGRFTISKTSTTVDLIMTSPTTEDTATYFCVRNLDYSSAYFHIWGPGTLVTVSS
VL: QVLTQTPSPVSAAVGGTVSISCQASQSVYNNNRLAWYQQKPGQPPNLLIYEASKLASGVPSRFKGSGSGTQFTLIISEVQCEDAATYYCQGYYSGFIYPFGGGTEVVVKR
notes: Rabbit variable regions on the human IgG1 constant region with L234F/L235E/P331S (Eu numbering) and human Ckappa
With B3, in test [6], the Kd was 0.174 nM, the koff was 0.000172 s⁻¹ and the kon turned out to be 985000 M⁻¹ s⁻¹. For the same molecule, in test [1], the EC50 worked out at 11.7 nM and the “Max FACS mean fluorescence intensity (MFI)” value turned out to be 95800 MFI. The EC50 in test [7] stood at 0.0196 nM. This molecule registered an EC50 in test [8] of 8.2 nM.

B4: 17G4 (a human-rabbit chimeric antibody, parent) (antibody, human IgG1, kappa, V domains shown)
VH: QSLEESGGRLVTPGTPLTLTCTASGFSLNDYYITWVRQAPGKGLEWIGVIYGSSNTVYASWAKGRFTISKTSTMVDLRITSPTTEDTATYFCARGYLASSADIWGPGTLVTVSL
VL: QVLTQTPSPVSAAVGGTVTINCQSSQSVYNNNRLAWYQQKPGQPPKLLIYDASTLASGVPSRFKGSGSGTDFTLTISDLECADAATYYCQTYYSGYIWAFGGGTEVVVKR
notes: as for B3
Consider B4, for which, in test [6], the Kd is 0.228 nM, the koff is 0.000182 s⁻¹ and the kon came out at 800000 M⁻¹ s⁻¹. In test [1], the EC50 was 17.4 nM and the “Max FACS mean fluorescence intensity (MFI)” value is 98000 MFI. Besides, the EC50 in test [7] worked out at 0.0228 nM. Further, the EC50 in test [8] amounted to 15.4 nM.
